Changes are numbered by the printed parent chain.
B1: Beva-se002 conjugated to S47 (antibody, human IgG1, kappa, V domains shown)
VH: EVQLVESGGGLVQPGGSLRLSCAASGYTFTNYGMNWVRQAPGKGLEWVGWINTYTGEPTYAADFKRRFTFSLDTSKSTAYLQMNSLRAEDTAVYYCAKYPHYYGSSHWYFDVWGQGTLVTVSS
VL: DIQMTQSPSSLSASVGDRVTITCSACQDISNYLNWYQQKPGKAPKVLIYFTSSLHSGVPSRFSGSGSGTDFTLTISSLQPEDFATYYCQQYSTVPWTFGQGTKVEIKR
modifications: S47 on Cys 26
B2: Beva-se003 conjugated to S47 (antibody, human IgG1, kappa, V domains shown)
VH: B1 VH
VL: B1 VL with C26S, Y49C
modifications: S47 on Cys 49
B3: Beva -se004 conjugated to S47 (antibody, human IgG1, kappa, V domains shown)
VH: B1 VH
VL: B1 VL with C26S, T51C
modifications: S47 on Cys 51
B4: Ritu-se001 conjugated to S47 (antibody, human IgG1, kappa, V domains shown)
VH: QVQLQQPGAELVKPGASVKMSCKASGYTFTSCNMHWVKQTPGRGLEWIGAIYPGNGDTSYNQKFKGKATLTADKSSSTAYMQLSSLTSEDSAVYYCARSTYYGGDWYFNVWGAGTTVTVSA
VL: QIVLSQSPAILSASPGEKVTMTCRASSSVSYIHWFQQKPGSSPKPWIYATSNLASGVPVRFSGSGSGTSYSLTISRVEAEDAATYYCQQWTSNPPTFGGGTKLEIKR
modifications: S47 on Cys 32
B5: Ritu-se002 conjugated to S47 (antibody, human IgG1, kappa, V domains shown)
VH: B4 VH with C32Y, K63C
VL: B4 VL
modifications: S47 on Cys 63

Experiments:
His tagged VEGF protein = His tagged VEGF protein (UniProt P15692); assay: ELISA, His tagged VEGF protein
His tagged CD20 protein = His tagged CD20 protein (UniProt P11836); assay: ELISA, His tagged CD20 protein

Chain of His tagged VEGF protein (P15692 other isoform, or with tags, fused parts or gaps limits assumed): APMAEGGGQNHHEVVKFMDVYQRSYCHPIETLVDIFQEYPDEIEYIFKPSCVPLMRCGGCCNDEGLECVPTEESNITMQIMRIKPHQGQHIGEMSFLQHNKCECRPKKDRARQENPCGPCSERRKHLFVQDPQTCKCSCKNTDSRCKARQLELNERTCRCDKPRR

Row | Binder | Blocking efficiency of S47 (His tagged VEGF protein) | Blocking efficiency of S47 (His tagged CD20 protein)
1 | B1 | 16 fold | –
2 | B2 | 26 fold | –
3 | B3 | 13 fold | –
4 | B4 | – | 16 fold
5 | B5 | – | 8 fold

Reference: US20230158141A1
